{"source": "paper PMC6704107", "about": "(2019)", "binders": {"B1": {"name": "Adeno-associated virus 1 (AAV1) particle, wild-type capsid (complex)", "chain": "MAADGYLPDWLEDNLSEGIREWWDLKPGAPKPKANQQKQDDGRGLVLPGYKYLGPFNGLDKGEPVNAADAAALEHDKAYDQQLKAGDNPYLRYNHADAEFQERLQEDTSFGGNLGRAVFQAKKRVLEPLGLVEEGAKTAPGKKRPVEQSPQEPDSSSGIGKTGQQPAKKRLNFGQTGDSESVPDPQPLGEPPATPAAVGPTTMASGGGAPMADNNEGADGVGNASGNWHCDSTWLGDRVITTSTRTWALPTYNNHLYKQISSASTGASNDNHYFGYSTPWGYFDFNRFHCHFSPRDWQRLINNNWGFRPKRLNFKLFNIQVKEVTTNDGVTTIANNLTSTVQVFSDSEYQLPYVLGSAHQGCLPPFPADVFMIPQYGYLTLNNGSQAVGRSSFYCLEYFPSQMLRTGNNFTFSYTFEEVPFHSSYAHSQSLDRLMNPLIDQYLYYLNRTQNQSGSAQNKDLLFSRGSPAGMSVQPKNWLPGPCYRQQRVSKTKTDNNNSNFTWTGASKYNLNGRESIINPGTAMASHKDDEDKFFPMSGVMIFGKESAGASNTALDNVMITDEEEIKATNPVATERFGTVAVNFQSSSTDPATGDVHAMGALPGMVWQDRDVYLQGPIWAKIPHTDGHFHPSPLMGGFGLKNPPPQILIKNTPVPANPPAEFSATKFASFITQYSTGQVSVEIEWELQKENSKRWNPEVQYTSNYAKSANVDFTVDNNGLYTEPRPIGTRYLTRPL"}}, "key": {"[1]": {"molecular_target": "T1, AAVR PKD1-5 D435A (UniProt Q8IZA0-1 1-1049, D435A)", "T1 sequence": "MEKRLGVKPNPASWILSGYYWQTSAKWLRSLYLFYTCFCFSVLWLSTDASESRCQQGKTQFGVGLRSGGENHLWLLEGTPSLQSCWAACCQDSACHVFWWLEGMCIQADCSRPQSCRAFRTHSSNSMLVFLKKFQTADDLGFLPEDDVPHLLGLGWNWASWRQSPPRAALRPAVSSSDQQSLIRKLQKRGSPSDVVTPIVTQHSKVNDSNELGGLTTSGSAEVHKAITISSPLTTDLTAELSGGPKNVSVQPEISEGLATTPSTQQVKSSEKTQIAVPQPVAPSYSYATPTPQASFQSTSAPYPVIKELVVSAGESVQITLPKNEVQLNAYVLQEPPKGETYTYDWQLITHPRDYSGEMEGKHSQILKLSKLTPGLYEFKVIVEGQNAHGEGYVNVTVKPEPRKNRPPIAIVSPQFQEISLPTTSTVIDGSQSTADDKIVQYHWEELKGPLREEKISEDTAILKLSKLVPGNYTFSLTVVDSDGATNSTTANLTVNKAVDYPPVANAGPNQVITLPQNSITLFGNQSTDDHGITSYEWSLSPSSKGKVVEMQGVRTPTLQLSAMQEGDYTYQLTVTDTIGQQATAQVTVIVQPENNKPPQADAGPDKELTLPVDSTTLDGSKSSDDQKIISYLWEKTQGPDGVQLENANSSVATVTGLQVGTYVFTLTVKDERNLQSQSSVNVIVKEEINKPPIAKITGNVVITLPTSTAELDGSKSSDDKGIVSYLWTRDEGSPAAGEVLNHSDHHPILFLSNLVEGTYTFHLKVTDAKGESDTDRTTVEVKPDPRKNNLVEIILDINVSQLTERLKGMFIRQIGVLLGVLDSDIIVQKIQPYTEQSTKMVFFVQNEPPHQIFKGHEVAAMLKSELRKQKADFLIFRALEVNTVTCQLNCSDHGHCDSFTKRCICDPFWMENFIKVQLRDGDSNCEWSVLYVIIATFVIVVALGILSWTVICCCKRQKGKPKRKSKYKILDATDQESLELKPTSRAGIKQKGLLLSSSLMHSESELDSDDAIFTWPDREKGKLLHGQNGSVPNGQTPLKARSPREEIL", "test": "SPR"}, "[2]": {"molecular_target": "T2, AAVR PKD1-5 S425A (UniProt Q8IZA0-1 1-1049, S425A)", "T2 sequence": "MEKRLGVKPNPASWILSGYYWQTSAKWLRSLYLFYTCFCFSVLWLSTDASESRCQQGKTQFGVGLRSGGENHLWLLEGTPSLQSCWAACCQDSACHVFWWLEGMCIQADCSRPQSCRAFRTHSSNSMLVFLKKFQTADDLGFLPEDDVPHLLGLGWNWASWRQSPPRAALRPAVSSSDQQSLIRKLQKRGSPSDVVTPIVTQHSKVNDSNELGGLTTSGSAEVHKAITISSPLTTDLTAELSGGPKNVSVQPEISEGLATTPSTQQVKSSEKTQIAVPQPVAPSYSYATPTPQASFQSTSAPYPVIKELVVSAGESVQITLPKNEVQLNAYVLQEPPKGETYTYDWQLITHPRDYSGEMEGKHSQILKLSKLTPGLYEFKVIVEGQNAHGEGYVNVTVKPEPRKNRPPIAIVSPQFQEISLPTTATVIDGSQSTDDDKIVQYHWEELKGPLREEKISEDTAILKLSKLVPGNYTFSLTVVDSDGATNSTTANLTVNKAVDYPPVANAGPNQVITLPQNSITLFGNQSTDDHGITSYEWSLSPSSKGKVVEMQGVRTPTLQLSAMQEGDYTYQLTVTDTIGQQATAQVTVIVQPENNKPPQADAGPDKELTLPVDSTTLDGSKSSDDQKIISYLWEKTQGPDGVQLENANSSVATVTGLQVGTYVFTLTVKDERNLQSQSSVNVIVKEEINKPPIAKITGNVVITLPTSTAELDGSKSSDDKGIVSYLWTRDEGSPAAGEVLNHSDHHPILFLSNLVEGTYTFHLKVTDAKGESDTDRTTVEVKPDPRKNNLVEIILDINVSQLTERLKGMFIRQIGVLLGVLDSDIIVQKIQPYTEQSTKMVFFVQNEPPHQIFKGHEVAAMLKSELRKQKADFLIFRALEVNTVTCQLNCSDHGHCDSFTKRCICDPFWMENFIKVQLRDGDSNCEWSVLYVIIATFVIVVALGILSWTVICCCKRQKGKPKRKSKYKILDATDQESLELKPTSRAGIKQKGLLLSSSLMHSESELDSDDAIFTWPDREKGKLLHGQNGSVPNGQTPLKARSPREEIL", "test": "SPR"}}, "data": [{"binder": "B1", "values": [{"measurement": "Kd", "setting": "[1]", "value": 13.6, "unit": "µM"}, {"measurement": "Kd", "setting": "[2]", "value": 3.88, "unit": "µM"}]}]}
